Consider 1 molecule from US20240287204A1 (published 2024).

The test addresses T1, human MerTK on cells (human, UniProt Q12866 21-999).
T1 sequence: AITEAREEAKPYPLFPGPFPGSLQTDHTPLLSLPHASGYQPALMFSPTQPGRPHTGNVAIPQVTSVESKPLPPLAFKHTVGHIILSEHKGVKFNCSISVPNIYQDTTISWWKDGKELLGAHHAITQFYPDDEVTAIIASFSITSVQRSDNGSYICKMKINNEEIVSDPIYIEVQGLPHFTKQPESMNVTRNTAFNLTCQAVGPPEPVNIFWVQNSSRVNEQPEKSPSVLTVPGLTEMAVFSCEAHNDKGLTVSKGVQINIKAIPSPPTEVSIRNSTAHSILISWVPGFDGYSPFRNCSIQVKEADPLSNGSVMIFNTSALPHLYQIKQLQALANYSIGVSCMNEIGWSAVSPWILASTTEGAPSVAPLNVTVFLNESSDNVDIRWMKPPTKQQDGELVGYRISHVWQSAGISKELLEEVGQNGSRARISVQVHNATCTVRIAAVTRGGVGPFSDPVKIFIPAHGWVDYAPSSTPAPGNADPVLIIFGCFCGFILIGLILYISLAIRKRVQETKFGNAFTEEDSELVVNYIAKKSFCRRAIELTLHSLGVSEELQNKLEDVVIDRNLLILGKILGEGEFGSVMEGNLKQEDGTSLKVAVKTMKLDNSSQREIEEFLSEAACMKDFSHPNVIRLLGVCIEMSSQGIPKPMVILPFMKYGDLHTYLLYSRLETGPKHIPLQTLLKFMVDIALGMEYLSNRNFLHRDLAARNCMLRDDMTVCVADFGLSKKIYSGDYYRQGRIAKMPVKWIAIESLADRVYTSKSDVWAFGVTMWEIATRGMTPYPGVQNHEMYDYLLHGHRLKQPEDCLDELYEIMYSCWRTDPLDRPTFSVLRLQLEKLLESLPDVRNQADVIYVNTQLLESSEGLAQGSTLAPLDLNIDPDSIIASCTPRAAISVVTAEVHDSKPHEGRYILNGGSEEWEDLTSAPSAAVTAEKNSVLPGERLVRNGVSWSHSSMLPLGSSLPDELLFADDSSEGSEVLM
As to the kind of experiment: cell-based or functional assay.

B1: MTK-22 (antibody, human IgG1, V domains shown)
VH: QVQLQQPGADLVEPGASVKLSCKASGYTFTSYWMHWVKQRPGQGLEWIGEIDPSDSSSNYNQKFKGKATLTVDKSSSTAYMHLNSLTSEDSAVYYCARRYYYGSLYFDNWGQGTTLTVSS
VL: DVVMTQSHKFMSTSVGDRVSITCKASQDVGTAIAWYQQKPGQSPKLLIYWASTRHTGVPDRFTGSRSGTVFTLTISNVQSEDLADYFCQQYTSYPLTFGSGTKLEIK
For B1, the “IC50 of blocking of Gas6-mediated pAKT activity in human M2c macrophages (HTRF)” value worked out at 0.531 nM.
